Assay results taken from patent US12527879B2, “Ligands targeted to epidermal growth factor receptors and compositions for use in treating tumors” (priority 2019, dated 2026).

Tests used:
FaDu cells [1] = experiment: Endocytosis assay of soluble EGFR-s10 scFv, FaDu; format: cell-based, human; details: 30 min, confocal microscopy
Protocol: (§1) Cells were incubated with EGFR-s10 for 30 min at 4° C. or 37° C. Following a PBS wash, the cells were fixed with 2% paraformaldehyde and permeabilized with 0.1% TRITON® X-100. Blocking was accomplished by adding 3% BSA. Mouse ANTI-FLAG antibodies were added to the cells and labeled with FITC anti-mouse IgG. Nuclei were stained with DAPI, and cells were observed on a confocal microscope (TCS-SP5, Leica).
(§2) We produced soluble scFv from EGFR-PC10 and designated it as EGFR-s10. Target binding and internalization are essential requirements of LTL-targeting moieties. We investigated these features of EGFR-s10 in SCCHN cancer cell lines. FaDu cells and Ca9-22 cells were separately incubated with EGFR-s10 at 4° C. or 37° C. for 30 min and compared with isotypic IgG controls. […] (FIGS. 3A-B).

Ca9-22 cells [2] = experiment: Endocytosis assay of soluble EGFR-s10 scFv, Ca9-22; format: cell-based, human; details: 30 min, confocal microscopy
Protocol: as §1, §2

human EGFR-Ex-Fc = target: T1, human EGFR-Ex-Fc (Homo sapiens, UniProt P00533); experiment: Recognition of human EGFR-Ex-Fc by EGFR-s10; format: binding
T1 construct: the extracellular domain of human EGFR-Fc fusion protein (EGFR-Ex-Fc); purchased R&D system
Text: (§3) EGFR s10 recognized both human and marine EGFR-Ex-Fc. This feature eliminates any requirements for a surrogate molecule to evaluate toxicity in murine platforms. After validating internalization of EGFR-s10 in target cells, we fabricated LTLs loaded with doxorubicin or vinorelbine (EGFR-s10-LD and EGFR-s10-LV, respectively) using a thin film method and PEGylation of EGFR-s10. […] The zeta-potentials were all higher than required to prevent formation of aggregates. […] In summary, EGFR-specific binding of EGFR-s10 was retained through chemical processing, and the resulting LTLs fulfilled the requirements of anti-neoplastic liposomal drugs, indicating suitability for further development.

marine EGFR-Ex-Fc = target: T2, marine EGFR-Ex-Fc (Mus musculus, UniProt Q01279); experiment: Recognition of murine EGFR-Ex-Fc by EGFR-s10; format: binding
T2 construct: the extracellular domain of human EGFR-Fc fusion protein (EGFR-Ex-Fc)
Text: as §3

[3] = Particle size by dynamic light scattering; format: physicochemical; details: DLS at 25° C.
Protocol: (§4) The average particle size of liposomes was determined by dynamic light scattering (DLS) at 25° C. using Malvern Zetasizer Nano ZS (Malvern instruments) with a 633-nm laser and a detection angle of 90°. The zeta-potential of the liposomes was measured using laser Doppler electrophoresis on the Malvern Zetasizer Nano ZS.

[4] = Zeta-potential by laser Doppler electrophoresis; format: physicochemical
Protocol: as §4

FaDu cells [5] = experiment: In vitro cytotoxicity assay (WST-1), FaDu; format: cell-based, human
Protocol: (§5) FaDu and Ca9-22 cells were incubated with various concentrations of non-targeted liposomal drugs, or EGFR-s10-conjugated LTLs for 4, 8, 16 and 24 hr. The medium was replaced with complete medium for 48 hr, and 4-[3-(4-iodophenyl)-2-(4-nitrophenyl)-2H-5-tetrazolio]-1,3-benzene disulfonate (WST-1) was added at 0.5 mg/ml. After the cells were incubated for 3 hr at 37° C., the reaction products' absorbance at 440-nm was measured, and half maximal inhibitory concentrations (IC50) were calculated.
(§6) The cytotoxicity of EGFR-s10-conjugated LTLs was compared to that of non-targeting counterparts in human SCCHN cell lines. Cell viability was analyzed by the WST-1 assay and calculated as percentage of living cells.

Ca9-22 cells [6] = experiment: In vitro cytotoxicity assay (WST-1), Ca9-22; format: cell-based, human
Protocol: as §5, §6

[7] = tested on: Ca9-22 subcutaneous xenograft; experiment: Murine subcutaneous Ca9-22 xenograft therapeutic assay; format: in vivo; details: 1.5 mg/kg twice a week for 4 weeks
Protocol: FaDu and Ca9-22 cells were inoculated s.c. into the flanks of 8- to 10-week-old Nod-SCID mice (1×10^6 cells/mouse). The diameters of the resulting tumors were measured twice per week, and tumor volume was calculated as follows: large diameter×(small diameter)^2×0.52. When tumors reached a mean volume of 350 mm^3, mice with similarly sized tumors were randomized into treatment cohorts (n=8 mice/group). Therapeutic regimens were injected intravenously (i.v.) as PBS, non-targeted liposomal drugs, or EGFR-s10 conjugated LTLs at 1 mg/kg, twice a week for 4 weeks, with a cumulative dose of 8 mg/kg for each group. The tumor volume was monitored twice a week. Premature death endpoints included weight loss greater than 5 g, inability to eat, or tumor volume exceeding 2000 mm^3.
The LTL treatment confers a statistically significant survival advantage over the non-targeting liposome (p=0.00153) and the median survival time of LTL group was 1.5-times longer than that of NTL group (94 days versus 60 days, respectively; FIG. 5D, upper and lower panels). We also tested singlet vinorelbine treatment in forms of free drug, NTL or LTL, with a dose of 1.5 mg/kg twice a week for 4 weeks in subcutaneously Ca9-22-xenografted NOD/SCID mice.

| Molecule | binding to cells (FaDu cells [1]; 4° C.) | internalization (FaDu cells [1]; 37° C.) | binding to cells (Ca9-22 cells [2]; Ca9-22, 4° C.) | internalization (Ca9-22 cells [2]; Ca9-22, 37° C.) | recognition of human EGFR-Ex-Fc (human EGFR-Ex-Fc) | recognition of marine EGFR-Ex-Fc (marine EGFR-Ex-Fc) | Z-average [3] [nm·days] | ζ-potential [4] [mV] | IC50 relative to non-targeting liposome (FaDu cells [5]) [fold] | IC50 relative to non-targeting liposome (Ca9-22 cells [6]) [fold] | mean tumor volume compared to NTL vinorelbine [7] | weight loss [7] |
| --- | --- | --- | --- | --- | --- | --- | --- | --- | --- | --- | --- | --- |
| EGFR-s10: soluble scFv generated from phage clone EGFR-PC10; amino acid sequence SEQ ID NO: 9 (protein, Whole scFv) scFv: EVQLVESGGGLVQPGGSLRLSCAASGFNLSSFWMSWVRQAPGKGLEWVANINHDGSDKYYVDSVKGRFSISRDNTKNSVYLQMDSLRGEDTAVYYCAKGKSLYDGSALDMWGQGTMVTVSSGGGGSGGGGSGGGGSDIVMTQSPSTLSASVGDRVTITCRASQTIGRWLAWYQQKPGKAPKLLIYGASSLQSGVPSRFSGSGSGTDFTLTISSLQPEDFATYYCQQSYSTLWTFGQGTKLEIKR | bound to the cell membrane | Internalization of EGFR-s10 (scFvs) as cytoplasmic aggregates was observed | bound to the cell membrane | Internalization of EGFR-s10 (scFvs) as cytoplasmic aggregates was observed | recognized | recognized | – | – | – | – | – | – |
| EGFR-s10-LD (conjugate, left off: small tags and cut ends) scFv: EVQLVESGGGLVQPGGSLRLSCAASGFNLSSFWMSWVRQAPGKGLEWVANINHDGSDKYYVDSVKGRFSISRDNTKNSVYLQMDSLRGEDTAVYYCAKGKSLYDGSALDMWGQGTMVTVSSGGGGSGGGGSGGGGSDIVMTQSPSTLSASVGDRVTITCRASQTIGRWLAWYQQKPGKAPKLLIYGASSLQSGVPSRFSGSGSGTDFTLTISSLQPEDFATYYCQQSYSTLWTFGQGTKLEIKR | – | – | – | – | – | – | 125 | −28.1 | 0.33 | 0.0028 | – | – |
| EGFR-s10-LV (conjugate, left off: small tags and cut ends) scFv: EVQLVESGGGLVQPGGSLRLSCAASGFNLSSFWMSWVRQAPGKGLEWVANINHDGSDKYYVDSVKGRFSISRDNTKNSVYLQMDSLRGEDTAVYYCAKGKSLYDGSALDMWGQGTMVTVSSGGGGSGGGGSGGGGSDIVMTQSPSTLSASVGDRVTITCRASQTIGRWLAWYQQKPGKAPKLLIYGASSLQSGVPSRFSGSGSGTDFTLTISSLQPEDFATYYCQQSYSTLWTFGQGTKLEIKR | – | – | – | – | – | – | 115.2 | −29.2 | 0.21 | 0.14 | smaller | no weight loss was observed |
